According to US20110028695A1 (published 2011):
Positions count from the first letter of the chain named. Each block holds one binder with its values, some of them ahead of it.

What was measured:
[1] = target: T1, HER2 on SKBR3 cells (human, UniProt P04626 23-1255); experiment: FMAT on SKBR3 cells; competitor labeled Herceptin
T1 construct: whole, on cells; also called ErbB2; HER2 p185 tyrosine kinase

[2] = target: T1, HER2 on SKBR3 cells; experiment: cell-based or functional assay
[3] = target: T1, HER2 on SKBR3 cells; experiment: FMAT on SKBR3 cells, periplasmic extract; competitor Alexa647-Herceptin
[4] = target: T1, HER2 on SKBR3 cells; experiment: FMAT on SKBR3 cells, periplasmic extract; competitor biotinylated OT-Fab
[5] = target: T2, recombinant human ErbB2/Fc chimera (human, UniProt P04626 23-652); experiment: SPR Biacore 3000, periplasmic extract over immobilised rhErbB2-Fc
T2 construct: bought from R&D Systems; also called rhErbB2-Fc; rhErb2-Fc; Fc part of the bought chimera not given

B1: 2C3-9GS-2C3 (VHH)
chain: EVQLVESGGGLVQPGGSLRLSCVASGFSLDDYGMTWVRQAPGKGLEWVSSINWSGTHTDYADSVKGRFTISRDNAKNTLFLQMNSLRSEDTAVYYCNQGWKIVPTDRTGHGTQVTVSSGGGGSGGGSEVQLVESGGGLVQPGGSLRLSCVASGFSLDDYGMTWVRQAPGKGLEWVSSINWSGTHTDYADSVKGRFTISRDNAKNTLFLQMNSLRSEDTAVYYCNQGWKIVPTDRTGHGTQVTVSS
notes: bivalent Nanobody, two VHH joined by a 9GS linker
binding result [1]: binds

B2: 2D3 (VHH)
VHH: EVQLVESGGSLVQPGGSLRLSCAASGFTFDDYAMSWVRQVPGKGLEWVSSINWSGTHTDYADSVKGRFTISRNNANNTLYLQMNSLKSEDTAVYYCAKNWRDAGTTWFEKSGSAGQGTQVTVSS
inhibition of SKBR3 proliferation ([3H]-thymidine), 50 nM Nanobody [2]: ~30%

B3: 13C12 (VHH)
VHH: B2 VHH with A24T, S35T, V40A, A61T, R101G
notes: c-myc/His6-tagged
% blocking of Herceptin binding [3]: > 90%

B5: 47D5 (VHH)
VHH: KVQLVESGGGLVQPGGSLRLSCAASGSIFGFNDMAWYRQAPGKQRELVALISRVGVTSSADSVKGRFTISRVNAKDTVYLQMNSLKPEDTAVYYCYMDQRLDGSTLAYWGQGTQVTVSS
notes: c-myc/His6-tagged; also called 47A8
% blocking of OT-Fab binding [4]: > 85%

B8: 2H3 (VHH)
VHH: EVQLVESGGGLVQPGGSLRLSCVASGFSLDDYGMTWVRQAPGKGLEWVSSINWSGTHTDYADSVKGRFTISRDNAKNTLFLQMNSLTPEDTAVYYCNQGWKIIPTDRRGHGTQVTVSS
notes: c-myc/His6-tagged
koff [5]: 0.00109 s⁻¹

B9: 2A5-9GS-2A5 (VHH)
chain: EVQLVESGGGLVQPGGSLRLSCATSGFTFDDYAMTWVRQAPGKGLEWVSSINWSGTHTDYTDSVKGRFTISRNNANNTLYLQMNSLKSEDTAVYYCAKNWGDAGTTWFEKSGSAGQGTQVTVSSGGGGSGGGSEVQLVESGGGLVQPGGSLRLSCATSGFTFDDYAMTWVRQAPGKGLEWVSSINWSGTHTDYTDSVKGRFTISRNNANNTLYLQMNSLKSEDTAVYYCAKNWGDAGTTWFEKSGSAGQGTQVTVSS
notes: as for B1
binding result [1]: binds

Second part, the binder after the results:

binding result [1]: binds
B4: 27H3-35GS-2D3 (other)
chain: EVQLVESGGSLVQPGGSLRLSCAASGFTFDDYAMTWVRQASGKGLEWVSSINWSGTHTDYTDSVKGRFTISRNNANNTLYLQMNSLKSEDTAVYYCAKNWGDAGTTWFEKSGSAGQGTQVTVSSGGGGSGGGGSGGGGSGGGGSGGGGSGGGGSGGGGSEVQLVESGGSLVQPGGSLRLSCAASGFTFDDYAMSWVRQVPGKGLEWVSSINWSGTHTDYADSVKGRFTISRNNANNTLYLQMNSLKSEDTAVYYCAKNWRDAGTTWFEKSGSAGQGTQVTVSS
notes: biparatopic Nanobody, 35GS linker; c-myc, His6-tagged

binding result [1]: binds
B6: 2A4-9GS-2A4 (VHH)
chain: EVQLVESGGGLVQPGGSLRLSCAASGFIFDDYAMSWVRQAPGKGLEWVSAINWSGSHRNYADSVKGRFTISRDNAKKTVYLQMNSLQSEDTAVYYCGTGWQSTTKNQGYWGQGTQVTVSSGGGGSGGGSEVQLVESGGGLVQPGGSLRLSCAASGFIFDDYAMSWVRQAPGKGLEWVSAINWSGSHRNYADSVKGRFTISRDNAKKTVYLQMNSLQSEDTAVYYCGTGWQSTTKNQGYWGQGTQVTVSS
notes: as for B1

binding result [1]: binds
B7: 30D10-35GS-2D3 (bispecific antibody)
chain: EVQLVESGGGLVQAGGSLTLSCTASETTVRIRTMAWYRQPPGNQREWVATIGSNGFATYPDSVKGRFTISRDNAKNTVYLQMNSLKPEDTAVYYCRDINRDIWGQGSQVTVSSGGGGSGGGGSGGGGSGGGGSGGGGSGGGGSGGGGSEVQLVESGGSLVQPGGSLRLSCAASGFTFDDYAMSWVRQVPGKGLEWVSSINWSGTHTDYADSVKGRFTISRNNANNTLYLQMNSLKSEDTAVYYCAKNWRDAGTTWFEKSGSAGQGTQVTVSS
notes: as for B4

binding result [1]: binds
B10: 2D3-9GS-2D3 (VHH)
chain: EVQLVESGGSLVQPGGSLRLSCAASGFTFDDYAMSWVRQVPGKGLEWVSSINWSGTHTDYADSVKGRFTISRNNANNTLYLQMNSLKSEDTAVYYCAKNWRDAGTTWFEKSGSAGQGTQVTVSSGGGGSGGGSEVQLVESGGSLVQPGGSLRLSCAASGFTFDDYAMSWVRQVPGKGLEWVSSINWSGTHTDYADSVKGRFTISRNNANNTLYLQMNSLKSEDTAVYYCAKNWRDAGTTWFEKSGSAGQGTQVTVSS
notes: as for B1

binding result [1]: binds
B11: 27A5-35GS-2D3 (bispecific antibody)
chain: EVQLVESGGGLVQAGGSLNLSCVASGIPFSTRTMAWYRQPPGNERDWVATIRSGAPVYADSVKGRFTVSRDNAKNTLYLQMNSLEPEDTATYYCWDVNGDIWGQGTPVTVSSGGGGSGGGGSGGGGSGGGGSGGGGSGGGGSGGGGSEVQLVESGGSLVQPGGSLRLSCAASGFTFDDYAMSWVRQVPGKGLEWVSSINWSGTHTDYADSVKGRFTISRNNANNTLYLQMNSLKSEDTAVYYCAKNWRDAGTTWFEKSGSAGQGTQVTVSS
notes: as for B4
